Assays:
Experiment in all cases: flow cytometry on cells; equilibrium titration: 100 nM to 300 pM recombinant integrin αvβ6 incubated with 10^5 yeast cells displaying the knottin plus 10^6 un-induced yeast cells; integrin binding buffer (25 mM Tris pH 7.4, 150 mM NaCl, 2 mM CaCl2, 1 mM MgCl2, 1 mM MnCl2, 0.1% BSA); fluorescein anti-αv antibody, binding normalised to cMyc expression
[1] = biological target: R01 cystine knot peptide displayed on the yeast surface
[2] = biological target: R01-MG cystine knot peptide displayed on the yeast surface
[3] = biological target: R01-MR cystine knot peptide displayed on the yeast surface

Kd [1]: 1 nM | Kd [2]: 1.24 nM | Kd [3]: 1 nM
Substance: Recombinant human integrin αvβ6 (from UniProt P06756 31-1048; P18564 22-709) (complex)
